The DeepSol protein solubility set

Test: soluble on expression in E. coli; label from the status in PepcDB or PDB records

| Sequence | soluble on expression in E. coli |
| --- | --- |
| MRDPFMEALGLKVLHLAPGEAVVAGEVRADHLNLHGTAHGGFLYALADSAFALASNTRGPAVALSCRMDYFRPLGAGARVEARAVEVNLSRRTATYRVEVVSEGKLVALFTGTVFRLGGDGDDVPAGTGNLAPREA | soluble |
| MIHSLFLINCSGDIFLEKHWKSVVSQSVCDYFFEAQEKAADVENVPPVISTPHHYLISIYRDKLFFVSVIQTEVPPLFVIEFLHRVADTFQDYFGECSEAAIKDNVVIVYELLEEMLDNGFPLATESNILKELIKPPTILRSVVNSITGSSNVGDTLPTGQLSNIPWRRAGVKYTNNEAYFDVVEEIDAIIDKSGSTVFAEIQGVIDACIKLSGMPDLSLSFMNPRLLDDVSFHPCIRFKRWESERVLSFIPPDGNFRLISYRVSSQNLVAIPVYVKHSISFKENSSCGRFDITIGPKQNMGKTIEGITVTVHMPKVVLNMNLTPTQGSYTFDPVTKVLTWDVGKITPQKLPSLKGLVNLQSGAPKPEENPSLNIQFKIQQLAISGLKVNRLDMYGEKYKPFKGVKYVTKAGKFQVRT | soluble |
| VDSVFVVGHKNLDMDALGASVGMQAFANNIIEHAAYAVYDEDSMSHDVARAVNRLKEDGHTQLLTVKESIEQVSDNSLLVMVDHSKLQLTLSRELYNKFTEVIVIDHHRRDDDFPENAILTFIESGASSASELVTELLQFQNGKYHLNKIQASIVMAGIMLDTKSFSTRVTSRTFDVASYLRTLGSDNVEIQNISALDF | not soluble |
| MSLDSTTIIIYGEKLSDSQRAEVKELLEISDQEMVEEHDVTGQDYADYINGNPRSNMYSSAGIILESQGAGLEVNIVTPENITEVTAEMYENALLTAGAENATVNVVSPVQVSGHSALTGIYKAYDVEGEQLDKERMELANEELNVATDLVDNGDVNQEEVSNLLTEIKKMIAEQNPATREDVEQIVSEQLDQLEINLSEQDRQMLVDLFDKMKDLEIDFGAVKEQLDSITNSIVEKAEDLGLDEGFWDKVANFFRDLFRSIGNLFGEGHHHHHH | soluble |
| MKLRHLPLIAAIGLFSTVTLAAGYTGPGATPTTTTVKAALEAADDTPVVLQGTIVKRIKGDIYEFRDATGSMKVEIDDEDFPPMEINDKTRVKLTGEVDRDLVGREIDVEFVEVIK | not soluble |
| MRFQYQALLNEHQSQLDRFSSHIVATLDKYAHIPHLISKDKELVDALLSAQNSAQIDITNRYLEQVNEVIQAADTYLIDRFGNTIASSNWNLDRSFIGRNFAWRPYFYLSIAGQKSQYFALGSTSGQRGYYYAYPVIYAAEILGVIVVKMDLSAIEQGWQNKSSYFVATDDHQVVFMSSQPAWLFHSVADLSPAQLNDIRQSQQYLDSPIPSLGWQGDLQAEQSEWRKPEKHWLQDDYIVSSRPLPELALTIRVLSPKIE | soluble |
| MSLRESVLKIYNWADYIDEDMLAEFPRWYKEQTGEDIRIVYQTFDINEIMLTKIERGHEDFDVVCPSEYIIERMLRKGLLLPIDTVFGKTPNYLHNESPYIREQLDKLSWSGHRASDYAIGYMWGTAGILFNTDHVPAEDARTWASLWNLKYENKILMKESYRDAYGTALIYANAEDLKKGKVTVEELMNNYSQASIDTVEKYLKAMKPLIAGWEADFGKEMMTKGKAWLNMTWSGDAVWAIEEAEGVGIHLDYEVPVEGSNVWYDGWVIPKYARNKKAASYFINYLCRPDVALRNMDACGYVSAVATPEILEAKIDTTLSYFADLSYFFGPAADSIQIDKVQYPDRTVVERCAMIRDSGDKTELVLEMWSRVKGDNEGHHHHHH | soluble |
| MNEMTLLYSPSCWVPGKNRDEVMNDFFAGIKNAFEALKNDEKIPRKENVAYGMEENQKVDIWGDASDKLLIFIHGGYWAAGTRKDCLTPARCALNNEYAFASVGYGLSTEGRTLTETVEDVVNGVDFILKLYPNVSNVLVGGHSAGAHLAMNAVARLRNPRIRGLLLFSGCYFLEELIGTEIGTDINLTTDQAKLNSCDLSKLDGLKLDSLVILGLQEAPKLIEQNRDFVAQQGQSRIEEFPNSGHYTIMTNLLNHTSGEYLAMEKFLKNF | not soluble |
| MVSEPKVPKAPRPPKQPNVQDFQFFPPRLFELLEKEILYYRKTIGYKVPRNPDLPNSAQVQKEEQLKIDEAEPLNDEELEEKEKLLTQGFTNWNKRDFNQFIKANEKWGRDDIENIAREVEGKTPEEVIEYSAVFWERCNELQDIEKTMAQIERGEARIQRRISILEHHHHHH | soluble |
| MSLAQFTTNPQRFDPYKNFKFRIKWGADYVAGVSKISGLKRTTEVVKHREGGDPSSSRKSPGRTEYEAITMERGVTHDVAFEQWANKVWNYGSGLGKEVSLADFRKDLVIEVYNEAGQAAMRYKVFRCWVSEFQSMSDLDANGNAVLIQHLKLETEGWERDYDLVEPKEGTFTEPAEGHHHHHH | soluble |
| MPRDVQVLPIATNTKVLRARSWSRLRFEIEYALERGTTSNSYVIEGDKTAIIDPPVESFMKIYLEALQQTVNLKKLDYVILGHFSPNRIPTFKALLELAPQITFVCSLPAAGDLRAAFPDDNLNILPMRGKETLDLGKGHVLKFLPIPSPRWPAGLCTYDVQTQILYTDKIFGAHICGDDVFDDNWESFKEDQRYYFNCLMAPHAIHVEAALEKISDLQVRLYAVGHGPLVRTSLIALTQAYADWSKAQKDREISVALLYASAYGNTATIARAIALGLTKGGVAVKSINCEFATPEEIQTNLEQVDGFLIGSPTIGGHAPTPINTALGIVLKVGDNNKLAGVFGSYGWSGEALDMIEGKLRDAGYRFGLDTLKVKFKPDDVTLKFCEEVGTDFAQTLKKAKKVRVPQQAATPVEQAVGRIVGSVCVITAKQGDVSTGMLGSWVSQATFNPPGLTVAIAKERAIESLMYPGGKFALNILSEGNHLEYMKHFRKNFAPGEDRFANFTTTEADNGCTVLADALAYVECSVDQRLECGDHWVVYATVDNGKLLKPDDVTAINHRKTGNHYLEHHHHHH | not soluble |
| MTVSGPGTPEPRPATPGASSVEQLRKEGNELFKCGDYGGALAAYTQALGLDATPQDQAVLHRNRAACHLKLEDYDKAETEASKAIEKDGGDVKALYRRSQALEKLGRLDQAVLDLQRCVSLEPKNKVFQEALRNI | soluble |
| MGSDKIHHHHHHMGEGLSVIGFDADDTLWQNESFFRLTEDKFAELLADFAEGAHLRERLLALETKNIGHYGFGIKGFMLSMIETAVEVTEGRVDGSVISKILEMGQDMLRHPIHLLPHVEETLGTLSDRYPLVLITKGDLLHQEQKLAASGLGDLFAGVEIVSAKLPSTYDTAFSVHGVGPKHAMMVGNSMKSDIRPALDAGAFAVYVPHGLTWELEHTETPVGHPRYHELPDLGGLIDLIETVTD | not soluble |
| MTQVIIDGDACPVTNSIIELTKGTGIFVTVVRSFSHFSTVIQPEHVNIIYVDDGPDAVDYRIVKLVHSDDLVVTQDYGLASLLLNKAKIVMHHKGFIYNQENINTLLEQRHASAQFRKSGLEHHHHHH | not soluble |
| MAHHHHHHMFHLWPLRPQPNRKPLGSKVVCWPQRRQIPPAPRQVWISQTRRRGPPCSVKEGEPSWRQGTRPDWPELKRSQRQSTAGRATDLSVDKAIPFGALLPCGEASKQHQQQQPNATGNWHDDADAPKEGLETN | soluble |
| MGSDKIHHHHHHDPLESMNRGIYKFNDTADKAVLKPIAGAYKAVLPSPIRTGVNNFFTNLGTFTSLVNNILQLELGKAMDNTGRLLINSTIGIGGLVDVASMDGVPNHRADFGQTLGKWGVGSGAYLVLPFLGPSTLRDTAGLTIDTLYFDPIQYTNHVRERNQLRMLSFIDLRSQYLPASDLIDDAALDPYIFMREAYLERRHQFVTGEASSFDDFDDDDEEVTPPEPQ | not soluble |
| MSEISQLTPQPLWQFFDKICSIPHPSKHEEALAQYIIEWATTEGLDVRRDPTGNVFIKKPATPGMEDRKGVVLQAHIDMVPQKNEDTEHDFTKDPIQPYIDGEWVTAKGTTLGADNGMGMASCLAVLASKELKHGPLEVLLTIDEEAGMTGAFGLEAGWLEGDILLNTDSEQEGEVYMGCAGGADGAIKLDIEREALPSGYITRQITLKGLKGGHSGCDIHTGRGNANKLLGRFLAGHAQELDLRLVEFRGGSLRNAIPREAFATIAVPAENEAKLAELFTFYTNLLKDELGKVETDIVSFNETASAEQVLTKITQSRFIATLNACPNGVIRMSDDIEGVVETSLNVGVITTDENSITILCLIRSLMDSGRSMVEGMLSSVAELAGAQVTFSGTYPGWKPDADSEIMHVFRDVYEGIYGNKPNIMVIHAGLECGLFKKPYPEMDMISFGPTIKFPHSPDEKVKIDTVALYWEQMVAILENIPKKLEHHHHHH | soluble |
| MARVTTGITSSHIPALGAAIQTGTSDNDYWGPVFKGYQPIRDWIKQPGNMPDVVILVYNDHASAFDMNIIPTFAIGCAETFKPADEGWGPRPVPDVKGHPDLAWHIAQSLILDEFDMTIMNQMDVDHGCTVPLSMIFGEPEEWPCKVIPFPVNVVTYPPPSGKRCFALGDSIRAAVESFPEDLNVHVWGTGGMSHQLQGPRAGLINKEFDLNFIDKLISDPEELSKMPHIQYLRESGSEGVELVMWLIMRGALPEKVRDLYTFYHIPASNTALGAMILQPEETAGTPLEPRKVMSGHSLAQA | soluble |
| MAKSLLFITSFLKPRYNKPIMEKNWNVGTKYLNDKTRIIVVGITGREASQVVTESEALYPGFIKVGVTPGKGGTEVAGVPVFNTVKEALSSPEGKDVNTGLVYVPPASVKDAVIELIDAGIKLIYIVTEHVPIRDTVYFYHYAKERGVTIVGPTSLGCIVPRIPARIGAIGGKNPSIAYADGGLVILSKSGGLTTTTAEMFKRRGWGVYMALALGGDVISCTTFADVLEEIADDPNVKGVVIQGEVGGTYEEQAAETILRLYKEGRWNKPVAAFVAGKFQEKMEGVSFGHAGAIVERGKGKATDKIRMFNEVGKETGLVKVAEFYHDLVNCIEELGVPRDFEDSTPGGKVEPLYRTIDPETCEFKPQD | soluble |
| MSLGNARMYEALRDYGDRFDTVGIFTFEVDETGTITETGTSISSMLPYIQKWPHIKWLLTIMNHGIANIFTALRNNENGAKDKFLTEIIRIMNKYPWCAGVDIDLERGGGYENKDAANALFRDIYNTVKSYDATKLVNICLPGMIGVQGSVGGENWCVYADLNDYCDTAAIMSYGMAWAGSAPGPVSPRDWLEGIYDYAVSVMSPDKIFMGLPAYGWNWRIHDTPENLGITYRGVSNTYYAAKYWMTGVYNFTGDAPPQPFIPIVAYWDDYNKVPWALPHVYDYMEGWDAVSWEYPLLKGVYNRRRYLTSYGKEQKAEFGTIYIDRNGVPDEYEGNVIITDEMTSLGDAQASAEYRFEIREAGYYDIAVQLCFPYWDKNAIIVSLDGISKTFSENEGHHHHHH | not soluble |
| MAIYTVKALITDPIDEILIKTLREKGIQVDYMPEISKEELLNIIGNYDIIVVRSRTKVTKDVIEKGKKLKIIARAGIGLDNIDTEEAEKRNIKVVYAPGASTDSAVELTIGLMIAAARKMYTSMALAKSGIFKKIEGLELAGKTIGIVGFGRIGTKVGIIANAMGMKVLAYDILDIREKAEKINAKAVSLEELLKNSDVISLHVTVSKDAKPIIDYPQFELMKDNVIIVNTSRAVAVNGKALLDYIKKGKVYAYATDVFWNEPPKEEWELELLKHERVIVTTHIGAQTKEAQKRVAEMTTQNLLNAMKELGMI | soluble |
| MNIIDELEWRGAVNQQTDEEGLRKLVEEKKISLYCGVDPTGDSMHIGHLIPFMMMKRFQLAGHHPVILIGGATGTIGDPSGRQSERQLQTLEVVQHNVDALTAQMKKLFDFGGNSEVKMVNNYDWTHEINIIEFLRDYGKNFSINSMLAKDIVASRLDTGISFTEFTYQILQAMDFHHLYTKEDVQLQIGGSDQWGNITSGLDLIRKLEGHEAKVFGLTIPLLLKSDGTKFGKSAGGAVWLDPEKTTPFEFYQFWVNTDDRDVVKYLKYFTFLTKERIDELAVKVETEPHKREAQKVLAEEMTKFVHGEEALLQAVKITAALFSGDIKSLTADEIEQGFKEMPTFQSSKETKNIVEWLVDLGIEPSRRQAREDINNGAISMNGEKVTDVGTDVTVENSFDGRFIIIRKGKKNYSLVKLG | soluble |
